Data taken from patent US20050222390A1 (IMMATICS BIOTECHNOLOGIES, published 2005).

B1: YVDPVITSI (met proto-oncogen 654-662) (peptide)
peptide: YVDPVITSI
notes: Found in tumors of both patients RCC01 and RCC13; also synthesized (Fmoc) for tetramers and pulsing; also called c-Met-peptide; c-Met-protooncogene-fragment
B2: SVASTITGV (adipose differentiation-related protein 129-137) (peptide)
peptide: SVASTITGV
notes: Also synthesized (Fmoc) for tetramers and pulsing; also called adipophilin-peptide; adipophilin fragment
B3: ALLNIKVKL (keratin 18 365-373) (peptide)
peptide: ALLNIKVKL
notes: Found in tumors of both patients RCC01 and RCC13; also called keratin 18 peptide

Each binder was assayed against T1, recombinant HLA-A*0201-molecules (human) (assay: in vitro folding of HLA-A*0201 with peptide, gel filtration).
T1 construct: Folded in vitro with the peptides, purified by gel filtration

Binder | binding result
B1 | binds
B2 | binds
B3 | binds
